Source: US20120276102A1 (Pfizer, published 2012)

T1: human gamma (γ) common chain expressed on CHO cells (human, UniProt P31785 23-369)
T1 construct: whole, on cells; Control protein; also called human IL-2R-γ common subunit; human γ-common
T1 sequence (looked up): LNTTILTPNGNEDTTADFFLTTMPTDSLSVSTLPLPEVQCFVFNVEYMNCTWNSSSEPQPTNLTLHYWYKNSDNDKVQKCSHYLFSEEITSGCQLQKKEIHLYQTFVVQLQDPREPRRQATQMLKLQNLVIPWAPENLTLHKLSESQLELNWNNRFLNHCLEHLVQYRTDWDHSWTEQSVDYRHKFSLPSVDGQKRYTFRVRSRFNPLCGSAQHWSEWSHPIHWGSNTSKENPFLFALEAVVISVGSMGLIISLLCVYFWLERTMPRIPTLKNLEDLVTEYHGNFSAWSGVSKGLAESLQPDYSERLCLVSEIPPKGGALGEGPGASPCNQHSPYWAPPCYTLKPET

T2: human IL-2Rβ (human, UniProt P14784 27-239)
T2 sequence (looked up): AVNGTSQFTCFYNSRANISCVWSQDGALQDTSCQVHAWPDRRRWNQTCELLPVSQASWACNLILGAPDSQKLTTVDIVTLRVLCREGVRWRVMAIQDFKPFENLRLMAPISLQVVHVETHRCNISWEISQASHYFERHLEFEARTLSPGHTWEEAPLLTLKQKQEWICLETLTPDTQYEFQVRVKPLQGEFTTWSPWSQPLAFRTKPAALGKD

B1: AbP (antibody, human IgG1, V domains shown)
VH: QVQLQESGPGLVKPSETLSLTCAVSGYSISSGYYWGWIRQPPGKGLEWIGSISHTGNTYYNPPLKSRVTISVDTSKNQFSLKLSSVTAADTAVYYCARGGGISRPEYWGQGTLVTVSS
VL: SSELTQDPAVSVALGQTVRITCQGDSLRTYYASWYQQKPGQAPVLVIYGKHKRPSGIPDRFSGSSSGNTASLTITGAQAEDEADYYCVSRSAKGNPHVLFGGGTQLTVL
notes: CDR3 graft, residue limits derived as for m29; also called VHP/VL20; VHPTM/VL20
B2: parental 18A5 antibody (antibody, V domains shown)
VH: QVQLQESGPGLVKTSETLSLTCAVSGYSISSGYYWGWIRQPPGKGLEWIGSISHTGNTYYNPPLKSRVTISVDTSKNQFSLKLSSVTAADTAVYYCARGGGISRPEYWGKGTLVTVSS
VL: SSELTQDPPVSVALGQTVTLTCQGDSLRTYYASWYQQKSGQAPILLLYGKHKRPSGIPDRFSGSTSGDTASLTITGAQAEDEADYYCNSRDSSGNPHVLFGGGTQLTVL
notes: also called 18A5 IgG
B3: AbQ (antibody, human IgG1, V domains shown)
VH: QVQLQESGPGLVKPSETLSLTCAVSGYSISSGYYWGWIRQPPGKGLEWIGSISHTGNTYYNPPLKSRVTISVDTSKNQFSLKLSSVTAADTAVYYCARFMGFGRPEYWGQGTLVTVSS
VL: SSELTQDPAVSVALGQTVRITCQGDSLRTYYASWYQQKPGQAPVLVIYGKHKRPSGIPDRFSGSSSGNTASLTITGAQAEDEADYYCVARSVVGNPHVLFGGGTQLTVL
notes: CDR3 graft, residue limits derived as for m29; also called VH3/VL2; VH3DM/VL2
B4: AbS (antibody, V domains shown)
VH: QVQLQESGPGLVKPSETLSLTCAVSGYSISSGYYWGWIRQPPGKGLEWIGSISHTGNTYYNPPLKSRVTISVDTSKNQFSLKLSSVTAADTAVYYCARGGGISRPEYWGQGTLVTVSS
VL: SSELTQDPAVSVALGQTVRITCQGDSLRTYYASWYQQKPGQAPVLVIYGKHKRPSGIPDRFSGSSSGNTASLTITGAQAEDEADYYCMSRSIWGNPHVLFGGGTQLTVL
notes: CDR3 graft, residue limits derived as for m29; also called VHP/VL6; VHPTM/VL6
B5: AbU (antibody, human IgG1, V domains shown)
VH: QVQLQESGPGLVKPSETLSLTCAVSGYSISSGYYWGWIRQPPGKGLEWIGSISHTGNTYYNPPLKSRVTISVDTSKNQFSLKLSSVTAADTAVYYCARGGGISRPEYWGQGTLVTVSS
VL: SSELTQDPAVSVALGQTVRITCQGDSLRTYYASWYQQKPGQAPVLVIYGKHKRPSGIPDRFSGSSSGNTASLTITGAQAEDEADYYCTTRSNKGNPHVLFGGGTQLTVL
notes: CDR3 graft, residue limits derived as for m29; also called VHP/VL25; VHPTM/VL25
B6: AbT (antibody, human IgG1, V domains shown)
VH: QVQLQESGPGLVKPSETLSLTCAVSGYSISSGYYWGWIRQPPGKGLEWIGSISHTGNTYYNPPLKSRVTISVDTSKNQFSLKLSSVTAADTAVYYCARGGGISRPEYWGQGTLVTVSS
VL: SSELTQDPAVSVALGQTVRITCQGDSLRTYYASWYQQKPGQAPVLVIYGKHKRPSGIPDRFSGSSSGNTASLTITGAQAEDEADYYCVARSNKGNPHVLFGGGTQLTVL
notes: CDR3 graft, residue limits derived as for m29; also called VHP/VL9; VHPTM/VL9
B7: AbR (antibody, human IgG1, V domains shown)
VH: QVQLQESGPGLVKPSETLSLTCAVSGYSISSGYYWGWIRQPPGKGLEWIGSISHTGNTYYNPPLKSRVTISVDTSKNQFSLKLSSVTAADTAVYYCARFMGFGRPEYWGQGTLVTVSS
VL: SSELTQDPAVSVALGQTVRITCQGDSLRTYYASWYQQKPGQAPVLVIYGKHKRPSGIPDRFSGSSSGNTASLTITGAQAEDEADYYCVTRSVKGNPHVLFGGGTQLTVL
notes: CDR3 graft, residue limits derived as for m29; also called VH3/VL18; VH3DM/VL18

Columns and labels:
[1] = molecular target: T3, human IL-21R expressed on cells (human, UniProt Q9HBE5 20-538); assay: cell-based or functional assay
T3 sequence (Q9HBE5 20-538 limits assumed): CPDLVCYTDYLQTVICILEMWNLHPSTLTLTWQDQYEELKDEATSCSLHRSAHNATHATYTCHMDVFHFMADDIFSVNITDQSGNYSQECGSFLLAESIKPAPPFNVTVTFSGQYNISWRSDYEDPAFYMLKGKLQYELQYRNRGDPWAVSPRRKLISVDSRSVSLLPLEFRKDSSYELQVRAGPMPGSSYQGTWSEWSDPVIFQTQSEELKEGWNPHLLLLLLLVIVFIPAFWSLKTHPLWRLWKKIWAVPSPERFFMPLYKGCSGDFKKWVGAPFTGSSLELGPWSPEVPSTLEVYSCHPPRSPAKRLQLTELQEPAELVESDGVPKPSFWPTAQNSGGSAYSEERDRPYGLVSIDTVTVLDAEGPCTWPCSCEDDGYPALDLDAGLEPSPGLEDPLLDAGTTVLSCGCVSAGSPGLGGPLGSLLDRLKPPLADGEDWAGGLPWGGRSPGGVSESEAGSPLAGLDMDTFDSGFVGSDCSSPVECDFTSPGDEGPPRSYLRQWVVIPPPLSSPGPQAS

[2] = molecular target: T3, human IL-21R expressed on cells; assay: cell-based or functional assay; remark: listed apart in the source
[3] = molecular target: T4, murine IL-21R expressed on cells (murine, UniProt Q9JHX3 20-529); assay: cell-based or functional assay
T4 sequence (Q9JHX3 20-529 limits assumed): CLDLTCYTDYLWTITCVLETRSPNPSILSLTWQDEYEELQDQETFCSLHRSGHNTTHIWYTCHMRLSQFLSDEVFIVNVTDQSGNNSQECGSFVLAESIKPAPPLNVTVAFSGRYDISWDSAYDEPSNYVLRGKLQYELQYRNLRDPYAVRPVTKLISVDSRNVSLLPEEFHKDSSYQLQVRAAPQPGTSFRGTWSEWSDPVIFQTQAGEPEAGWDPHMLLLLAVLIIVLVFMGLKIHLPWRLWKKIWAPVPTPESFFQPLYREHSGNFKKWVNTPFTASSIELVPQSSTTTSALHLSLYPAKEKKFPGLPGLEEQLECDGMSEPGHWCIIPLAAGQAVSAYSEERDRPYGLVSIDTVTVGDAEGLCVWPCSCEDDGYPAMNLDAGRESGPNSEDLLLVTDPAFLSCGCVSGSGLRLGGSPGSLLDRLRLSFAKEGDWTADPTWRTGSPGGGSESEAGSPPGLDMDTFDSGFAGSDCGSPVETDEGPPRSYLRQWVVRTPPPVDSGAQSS

[4] = molecular target: T1, human gamma (γ) common chain expressed …; assay: cell-based ELISA on CHO cells transiently expressing human gamma common chain; HRP anti-human IgG, A450
Method in brief: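 Transfection 48 hr pre-assay; block PBS/CaMg/5% milk 1 hr RT; serially diluted IgG conditioned media 1 hr RT; HRP conjugate 1 hr RT; TMB to saturation, stop 0.18 M H₂SO₄.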

human soluble IL-4R = molecular target: T5, human soluble IL-4R (human, UniProt P24394 26-232, limits assumed); assay: BIACORE: antibody captured on anti-human IgG; 50 nM analyte injected
T5 construct: also called human sIL-4R
Procedure: (§1) The specificity of binding of a subset of transiently expressed anti-IL-21R binding proteins (here antibodies) was tested on a BIACORE™ 2000 surface plasmon resonance instrument. Anti-human-IgG, anti-murine immunoglobulin antibodies, and murine IL-21R-H/F were immobilized onto a research-grade carboxymethyl-dextran chip (CM5) using standard amine coupling. The sensor chip surface was activated with EDC/NHS for 7 min at a flow rate of 20 μl/min. The first flow cell was used as reference surface to correct for bulk refractive index, matrix effects, and nonspecific binding. […] Remaining activated groups were blocked with 1.0 M ethanolamine (pH 8.0). The molecular weights of the anti-human IgG and the anti-murine IgG were both 150 kD, and the molecular weight of the IL-21R monomer was 27 kD.
(§2) Conditioned media containing anti-IL-21R antibodies and antibody controls (murine anti-human IL-2Rβ and murine anti-human IL-4R(R&D Systems, Minneapolis, Minn.); human anti-human IL-13 (Wyeth, Cambridge, Mass.)) were diluted in HBS/EP buffer supplemented with 0.2% bovine serum and injected onto all four flow cells of the BIACORE™ chip, capturing 500-700 (RU) of antibody on the species-appropriate capture antibody. Following a 5 sec washing period, 50 nM solutions of a positive control protein (murine IL-21R-H/F), two human proteins related to IL-21R (human IL-2Rβ and human sIL-4R(R&D Systems)), or an unrelated His/FLAG-tagged protein (human IL-13-H/F) were injected over the captured antibodies on the chip. The association and dissociation phases were monitored for 120 and 180 sec, respectively, followed by two 5 μl injections of glycine (pH 1.5) to regenerate a fully active capturing surface. All binding experiments were done at 25° C. in HBS/EP buffer. Blank and buffer effects were subtracted for each sensorgram using double referencing.

human IL-2Rβ = molecular target: T2, human IL-2Rβ; assay: as above
Procedure: as §1, §2

human IL-13-His/FLAG = molecular target: T6, human IL-13-His/FLAG (human, UniProt P35225 35-146, limits assumed); assay: as above
T6 construct: Unrelated His/FLAG-tagged control; also called human IL-13-H/F
T6 sequence (P35225 35-146 limits assumed): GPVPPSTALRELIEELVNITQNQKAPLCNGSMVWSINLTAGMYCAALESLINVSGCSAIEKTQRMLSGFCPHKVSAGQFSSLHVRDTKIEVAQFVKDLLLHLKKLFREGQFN
Procedure: as §1, §2

[5] = molecular target: T1, human gamma (γ) common chain expressed …; assay: cell ELISA, CHO cells
[6] = molecular target: T7, cynomolgus monkey IL-21R expressed on cells (cynomolgus monkey, UniProt G7Q0S8 41-559); assay: cell ELISA, CHO cells
T7 construct: whole, on cells

[7] = molecular target: T8, rat IL-21R expressed on cells (rat); assay: cell ELISA, CHO cells
T8 construct: whole, on cells

[8] = molecular target: T3, human IL-21R expressed on cells; assay: cell ELISA, CHO cells
[9] = molecular target: T4, murine IL-21R expressed on cells; assay: cell-based or functional assay; remark: listed apart in the source

Binder | Neutralization of human primary T cell Proliferation IC50 [1] [nM] | Human IL-21R-BaF3 Proliferation IC50 [2] [nM] | Human IL-21R-TF1 Proliferation IC50 [2] [nM] | Murine IL-21R-BaF3 Proliferation IC50 [3] [nM] | binding result [4] | binding result (human soluble IL-4R) | binding result (human IL-2Rβ) | binding result (human IL-13-His/FLAG) | A450 (13 nM Ab) [5] [A450] | A450 (13 nM Ab) [6] [A450] | A450 (13 nM Ab) [7] [A450] | A450 (13 nM Ab) [8] [A450] | Neutralization of murine primary T cell Proliferation IC50 [9] [nM]
B1 | 0.02 | 0.75 | 3.48 | 0.03 | no binding (tested: 40 nM) | no binding (tested: 50 nM) | no binding (tested: 50 nM) | no binding (tested: 50 nM) | 0.112 | 1.31 | 1.03 | 1.31 | –
B2 | 1.42 | – | – | – | no binding (tested: 13 nM) | – | – | – | – | – | – | – | > 85
B3 | 0.08 | 0.68 | 4.62 | 0.153 | no binding (tested: 40 nM) | no binding (tested: 50 nM) | no binding (tested: 50 nM) | no binding (tested: 50 nM) | 0.125 | 1.31 | 1.16 | 1.25 | 0.85
B4 | 0.06 | 1.53 | 5 | 0.04 | no binding (tested: 40 nM) | no binding (tested: 50 nM) | no binding (tested: 50 nM) | no binding (tested: 50 nM) | 0.118 | 1.22 | 1.17 | 1.02 | 0.02
B5 | 0.03 | 0.73 | 3.13 | 0.184 | no binding (tested: 40 nM) | no binding (tested: 50 nM) | no binding (tested: 50 nM) | no binding (tested: 50 nM) | 0.104 | 1.31 | 0.927 | 1.29 | 1.79
B6 | 0.03 | 0.67 | 3.26 | 0.093 | no binding (tested: 40 nM) | no binding (tested: 50 nM) | no binding (tested: 50 nM) | no binding (tested: 50 nM) | 0.102 | 1.22 | 0.994 | 1.08 | 0.61
B7 | 0.04 | 0.87 | 3.94 | 0.302 | no binding (tested: 40 nM) | no binding (tested: 50 nM) | no binding (tested: 50 nM) | no binding (tested: 50 nM) | 0.109 | 1.35 | 1.11 | 1.33 | 0.13
